Assay results: patent US20040215400A1, “Computational design of a water-soluble analog of a protein, such as phospholamban and potassium channel KcsA” (priority 2003, published 2004)

Tests used:
WSK-3 = WSK-3 (Streptomyces lividans, UniProt P0A334, L24D/W26E/G43A/Q58A/T61S/R64D/L81R/V93E/S102V/G104A, form not given)
native channel = native channel (Streptomyces lividans, UniProt P0A334); settings: read-out: reported Kdiss, Heginbotham et al. 1999; cited from earlier work
[1] = Sedimentation equilibrium analytical ultracentrifugation, monomer-nmer self-association; type: physicochemical
Experimental: Sedimentation equilibrium was used to rigorously determine the association state and thermodynamics of the observed oligomers. Because WSPLB eluted as a single homogenous species from size exclusion chromatography, and its CD spectra were concentration independent above 100 μM, we initially determined its association state at 113 μM centrifuged at 35,000 rpm. In these conditions, WSPLB sedimented as a single species with a molecular weight of approximately 31,600+/−200, or a pentamer (n=5.04). […] The monomer-pentamer dissociation constant was determined to be 6.34×10^−21 M^4 with a P(1/2)=6 μM, where P(1/2) is the midpoint of the monomer-nmer isotherm in total peptide concentration. […]
Measurements were made at 25° C. using a Beckman XL-1 analytical ultracentrifuge. […] Concentrations were monitored using absorption optics at a wavelength of 275 nm and equilibrium was assessed by the absence of significant change in radial concentration gradients in scans separated by a few hours. […] An uncertainty was estimated of about +10% in the calculated molecular weight of the protein, arising largely from uncertainty in the partial specific volume, which is calculated from a weight average of individual amino acids. […] Association constants were determined similarly, keeping the monomer molecular weight and oligomer number constant, and allowing the equilibrium constant to float. […]

[2] = Thermal denaturation monitored by circular dichroism at 222 nm; type: physicochemical; design: ΔCp: unit not given here
Experimental: All of the peptides were thermally unfolded, monitoring the loss of signal at 222 nm by CD spectroscopy with increasing temperature. Scans taken with 60 s signal averaging time and equilibration of 4 min at each temperature. Concentrations of peptide are 50 and 125 μM. Data were fit to a two-state model (theoretical curves are shown) with a monomer-pentamer equilibrium. […] Previously it has been shown that global fitting of such curves obtained at multiple protein concentrations can be used to confirm the aggregation state and obtain highly accurate measures of the free energy of association. Application of these procedures to WSPLB allows an excellent fit for a monomer-pentamer equilibrium, providing the thermodynamic parameters described in Table 1. The predicted midpoint concentration for the monomer-pentamer isotherm was 4.9 μM (30 kcal/mol) at 25° C., in good agreement with the value of 6 μM (28 kcal/mol) obtained from sedimentation equilibrium.
Conditions are identical to those in FIG. 2. Scans taken with 60 s signal averaging time and equilibration of 4 min at each temperature. Concentrations of both peptides are 50 μM. […] At these concentrations the ΔTm was approximately 8° C., and the ΔΔGunf was 4 kcal/mol. In Table 1, parameters are shown for full length WSPLB and phosphorylated pWSPLB, including ΔGunf, ΔHunf, and ΔCp, all at 1 M standard state, and a reference temperature of 350 K. Tm at 50 μM is also shown. ACP was a global fitting parameter for WSPLB, but held fixed for pWSPLB at the same value as WSPLB.
Thermal unfolding curves of WSPLB (residues 21-52) from 2 to 94° C. are illustrated in FIG. 7. Scans taken with 60 s signal averaging time and equilibration of 4 minutes at each temperature. Conditions and peptide concentrations were identical to those in FIG. 2. […] At higher temperatures a main transition is observed, which depends on the concentration of the peptide. […] In contrast, the main transition corresponds to dissociation of the oligomer to unfolded monomer. The increase in stability of WSPLB (residues 21-52) to WSPLB, also seen in sedimentation equilibrium, is apparent in the increase in Tm which is 76° C. for WSPLB (residues 21-52) versus 55° C. for WSPLB at 50 μM.
All CD spectra were collected on an AVIV 62DS spectropolarimeter, using a 1 mm pathlength quartz cuvette. CD spectra of WSPLB and pWSPLB were collected in 10 mM sodium phosphate pH 7.5, 50 mM NaCl, 1 mM tris (2-carboxyethyl)-phosphine hydrochloride (TCEP-HCl), and 1 mM EDTA while those for WSPLB (residues 21-52) in the same buffer substituted with 50 mM MOPS pH 7. Each wavelength scan from 200-260 nm is an average of four scans with 4 second averaging time per data point at 25° C. All thermal melting curves were collected in the same buffers as their corresponding wavelength scans, with 60 second averaging time and 4 minute equilibration time. The elipticity was measured at 222 nm as a function of increasing temperature (2-94° C.). WSPLB and pWSPLB melting curves were analyzed with Igor Pro® 3.16 (available from WaveMetrics, Inc., Oswego, Oreg. 97035), assuming a two-state unfolding pathway.
where [θ] is mean residue elipticity (deg cm^2 dmol^−1), T° is the midpoint of the transition, ΔH° is the van't Hoff enthalpy at the midpoint (kcal mol^−1), ΔS° is the standard state entropy (kcal mol^−1 K^−1), and ΔCP is the change in heat capacity over the temperature range of the experiment (kcal mol^−1 K^−1). In fitting, the floating parameters are the initial and final [θ] values, the slopes of the folded and unfolded baselines, ΔH, ΔCP, and Tm. The parameters were globally fit to three equilibria schemes, from monomer-tetramer to hexamer, using data collected at 49 and 126 μM. Only the monomer-pentamer scheme provided an adequate fit to the data. ΔCP was held constant for pWSPLB at the value obtained for WSPLB.

[3] = global fit, monomer-pentamer, 1 M standard state, reference temperature 350 K

WSK-3, sequence (P0A334 whole entry L24D/W26E/G43A/Q58A/T61S/R64D/L81R/V93E/S102V/G104A, looked up): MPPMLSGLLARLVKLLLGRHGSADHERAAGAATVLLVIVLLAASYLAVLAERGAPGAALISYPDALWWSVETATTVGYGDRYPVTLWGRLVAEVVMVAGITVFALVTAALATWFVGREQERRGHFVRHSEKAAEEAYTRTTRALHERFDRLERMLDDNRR
native channel, sequence (P0A334 whole entry): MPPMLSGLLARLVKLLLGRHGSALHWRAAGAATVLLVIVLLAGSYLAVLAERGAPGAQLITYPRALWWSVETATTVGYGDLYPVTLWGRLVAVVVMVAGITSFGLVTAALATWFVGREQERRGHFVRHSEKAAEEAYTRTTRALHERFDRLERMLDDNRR

Row | Compound | competition with AgTx2-DNP for binding to WSK-3 (WSK-3; AgTx2-DNP 10 μM, WSK-3 10 μM tetramer, relative to KCl control) | Kd (WSK-3; read-out: Kdiss for TEA, from TEA concentration for 50% total toxin dissociation, assuming Kdiss≦2 μM for AgTx2-DNP) [mM] | Kd (native channel) [mM] | free energy of association (monomer-pentamer) ([1]; from sedimentation equilibrium) [kcal/mol] | P(1/2), midpoint of the monomer-nmer isotherm in total peptide concentration ([1]; monomer-pentamer, sedimentation equilibrium, 25° C.) [µM] | increase of stability by phosphorylation [2] [kcal/mol/monomer] | Tm at 50 μM ([2]; 50 μM peptide, CD 222 nm, 2-94° C.) [°C] | predicted midpoint concentration for the monomer-pentamer isotherm ([2]; at 25° C., from global fit of thermal denaturation) [µM] | free energy of association (monomer-pentamer) ([2]; at 25° C., from thermal denaturation) [kcal/mol] | ΔGunf [2, 3] [kcal/mol] | ΔHunf [2, 3] [kcal/mol] | ΔCp ([2]; global fitting parameter for WSPLB, held fixed for pWSPLB at the WSPLB value)
1 | CC[N+](CC)(CC)CC.[Cl-] [TEA, tetraethylammonium chloride] | induces dissociation of AgTx2-DNP from WSK-3 in a concentration-dependent manner | ≤ 80 | 3.2 to 22 |  |  |  |  |  |  |  |  | 
2 | WSPLB: computationally designed water-soluble analog of phospholamban, full length, expressed in E. coli (MDKVQYLTRSAIRRAISTIEMPQQARQNLQNLYINRCLREICQELKEIRAMLK; WSPLB) |  |  |  | 28 | 6 | -0.9 | 55 | 4.9 | 30 | 19.2 | 229 | 1.9
